From patent US20230365662A1
Where “and” joins values, the source holds several entries; their conditions need not be identical. Equal entries are not always repeated.

B1: parental mouse Fab FASEBA sample (Fab, V domains shown)
VH: EVQLKQSGPGLVAPSQSLSITCTVSGFSLSIYSVHWVRQPPGKGLEWLGMIWGGGSSDYNSALKSRLSISKDNSKSQVFLKMNSLQTDDTAMYYCARNGNFYAMDYWGQGTSVTVSS
VL: QIVLTQSPAIMSASLGERVTMTCTASSSVSSSFLHWYQQKPGSSPQLWIYSTSNLASGVPARFSGSGSGTSYSLTISSMEAEDAATYYCHQYHHSPYIYTFGGGTKLEIKR
B2: KB001 parental mouse Fab VH variant A103C (Fab, V domains shown)
VH: EVQLKQSGPGLVAPSQSLSITCTVSGFSLSIYSVHWVRQPPGKGLEWLGMIWGGGSSDYNSALKSRLSISKDNSKSQVFLKMNSLQTDDTAMYYCARNGNFYCMDYWGQGTSVTVSS
VL: QIVLTQSPAIMSASLGERVTMTCTASSSVSSSFLHWYQQKPGSSPQLWIYSTSNLASGVPARFSGSGSGTSYSLTISSMEAEDAATYYCHQYHHSPYIYTFGGGTKLEIK
B3: KB001 parental mouse Fab VH variant Y106W (Fab, V domains shown)
VH: EVQLKQSGPGLVAPSQSLSITCTVSGFSLSIYSVHWVRQPPGKGLEWLGMIWGGGSSDYNSALKSRLSISKDNSKSQVFLKMNSLQTDDTAMYYCARNGNFYAMDWWGQGTSVTVSS
VL: QIVLTQSPAIMSASLGERVTMTCTASSSVSSSFLHWYQQKPGSSPQLWIYSTSNLASGVPARFSGSGSGTSYSLTISSMEAEDAATYYCHQYHHSPYIYTFGGGTKLEIK
B4: KB001 parental mouse Fab VH variant A103I (Fab, V domains shown)
VH: EVQLKQSGPGLVAPSQSLSITCTVSGFSLSIYSVHWVRQPPGKGLEWLGMIWGGGSSDYNSALKSRLSISKDNSKSQVFLKMNSLQTDDTAMYYCARNGNFYIMDYWGQGTSVTVSS
VL: QIVLTQSPAIMSASLGERVTMTCTASSSVSSSFLHWYQQKPGSSPQLWIYSTSNLASGVPARFSGSGSGTSYSLTISSMEAEDAATYYCHQYHHSPYIYTFGGGTKLEIK
B5: KB001 parental mouse Fab VH variant A103G (Fab, V domains shown)
VH: EVQLKQSGPGLVAPSQSLSITCTVSGFSLSIYSVHWVRQPPGKGLEWLGMIWGGGSSDYNSALKSRLSISKDNSKSQVFLKMNSLQTDDTAMYYCARNGNFYGMDYWGQGTSVTVSS
VL: QIVLTQSPAIMSASLGERVTMTCTASSSVSSSFLHWYQQKPGSSPQLWIYSTSNLASGVPARFSGSGSGTSYSLTISSMEAEDAATYYCHQYHHSPYIYTFGGGTKLEIK
B6: KB001 parental mouse Fab VH variant A103M (Fab, V domains shown)
VH: EVQLKQSGPGLVAPSQSLSITCTVSGFSLSIYSVHWVRQPPGKGLEWLGMIWGGGSSDYNSALKSRLSISKDNSKSQVFLKMNSLQTDDTAMYYCARNGNFYMMDYWGQGTSVTVSS
VL: QIVLTQSPAIMSASLGERVTMTCTASSSVSSSFLHWYQQKPGSSPQLWIYSTSNLASGVPARFSGSGSGTSYSLTISSMEAEDAATYYCHQYHHSPYIYTFGGGTKLEIK
B7: KB001 parental mouse Fab VH variant A103V (Fab, V domains shown)
VH: EVQLKQSGPGLVAPSQSLSITCTVSGFSLSIYSVHWVRQPPGKGLEWLGMIWGGGSSDYNSALKSRLSISKDNSKSQVFLKMNSLQTDDTAMYYCARNGNFYVMDYWGQGTSVTVSS
VL: QIVLTQSPAIMSASLGERVTMTCTASSSVSSSFLHWYQQKPGSSPQLWIYSTSNLASGVPARFSGSGSGTSYSLTISSMEAEDAATYYCHQYHHSPYIYTFGGGTKLEIK
B8: KB001 parental mouse Fab VH variant M104V (Fab, V domains shown)
VH: EVQLKQSGPGLVAPSQSLSITCTVSGFSLSIYSVHWVRQPPGKGLEWLGMIWGGGSSDYNSALKSRLSISKDNSKSQVFLKMNSLQTDDTAMYYCARNGNFYAVDYWGQGTSVTVSS
VL: QIVLTQSPAIMSASLGERVTMTCTASSSVSSSFLHWYQQKPGSSPQLWIYSTSNLASGVPARFSGSGSGTSYSLTISSMEAEDAATYYCHQYHHSPYIYTFGGGTKLEIK
B9: KB001 parental mouse Fab VH variant A103K (Fab, V domains shown)
VH: EVQLKQSGPGLVAPSQSLSITCTVSGFSLSIYSVHWVRQPPGKGLEWLGMIWGGGSSDYNSALKSRLSISKDNSKSQVFLKMNSLQTDDTAMYYCARNGNFYKMDYWGQGTSVTVSS
VL: QIVLTQSPAIMSASLGERVTMTCTASSSVSSSFLHWYQQKPGSSPQLWIYSTSNLASGVPARFSGSGSGTSYSLTISSMEAEDAATYYCHQYHHSPYIYTFGGGTKLEIK
B10: KB001 parental mouse Fab VH variant Y106K (Fab, V domains shown)
VH: EVQLKQSGPGLVAPSQSLSITCTVSGFSLSIYSVHWVRQPPGKGLEWLGMIWGGGSSDYNSALKSRLSISKDNSKSQVFLKMNSLQTDDTAMYYCARNGNFYAMDKWGQGTSVTVSS
VL: QIVLTQSPAIMSASLGERVTMTCTASSSVSSSFLHWYQQKPGSSPQLWIYSTSNLASGVPARFSGSGSGTSYSLTISSMEAEDAATYYCHQYHHSPYIYTFGGGTKLEIK
B11: KB001 parental mouse Fab VH variant A103L (Fab, V domains shown)
VH: EVQLKQSGPGLVAPSQSLSITCTVSGFSLSIYSVHWVRQPPGKGLEWLGMIWGGGSSDYNSALKSRLSISKDNSKSQVFLKMNSLQTDDTAMYYCARNGNFYLMDYWGQGTSVTVSS
VL: QIVLTQSPAIMSASLGERVTMTCTASSSVSSSFLHWYQQKPGSSPQLWIYSTSNLASGVPARFSGSGSGTSYSLTISSMEAEDAATYYCHQYHHSPYIYTFGGGTKLEIK
B12: KB001 parental mouse Fab (WT) (Fab, V domains shown)
VH: EVQLKQSGPGLVAPSQSLSITCTVSGFSLSIYSVHWVRQPPGKGLEWLGMIWGGGSSDYNSALKSRLSISKDNSKSQVFLKMNSLQTDDTAMYYCARNGNFYAMDYWGQGTSVTVSS
VL: QIVLTQSPAIMSASLGERVTMTCTASSSVSSSFLHWYQQKPGSSPQLWIYSTSNLASGVPARFSGSGSGTSYSLTISSMEAEDAATYYCHQYHHSPYIYTFGGGTKLEIK
B13: KB001 parental mouse Fab VH variant Y106I (Fab, V domains shown)
VH: EVQLKQSGPGLVAPSQSLSITCTVSGFSLSIYSVHWVRQPPGKGLEWLGMIWGGGSSDYNSALKSRLSISKDNSKSQVFLKMNSLQTDDTAMYYCARNGNFYAMDIWGQGTSVTVSS
VL: QIVLTQSPAIMSASLGERVTMTCTASSSVSSSFLHWYQQKPGSSPQLWIYSTSNLASGVPARFSGSGSGTSYSLTISSMEAEDAATYYCHQYHHSPYIYTFGGGTKLEIK
B14: KB001 parental mouse Fab VH variant M104L (Fab, V domains shown)
VH: EVQLKQSGPGLVAPSQSLSITCTVSGFSLSIYSVHWVRQPPGKGLEWLGMIWGGGSSDYNSALKSRLSISKDNSKSQVFLKMNSLQTDDTAMYYCARNGNFYALDYWGQGTSVTVSS
VL: QIVLTQSPAIMSASLGERVTMTCTASSSVSSSFLHWYQQKPGSSPQLWIYSTSNLASGVPARFSGSGSGTSYSLTISSMEAEDAATYYCHQYHHSPYIYTFGGGTKLEIK
B15: KB001 parental mouse Fab VH variant F101L (Fab, V domains shown)
VH: EVQLKQSGPGLVAPSQSLSITCTVSGFSLSIYSVHWVRQPPGKGLEWLGMIWGGGSSDYNSALKSRLSISKDNSKSQVFLKMNSLQTDDTAMYYCARNGNLYAMDYWGQGTSVTVSS
VL: QIVLTQSPAIMSASLGERVTMTCTASSSVSSSFLHWYQQKPGSSPQLWIYSTSNLASGVPARFSGSGSGTSYSLTISSMEAEDAATYYCHQYHHSPYIYTFGGGTKLEIK
B16: KB001 parental mouse Fab VH variant Y106Q (Fab, V domains shown)
VH: EVQLKQSGPGLVAPSQSLSITCTVSGFSLSIYSVHWVRQPPGKGLEWLGMIWGGGSSDYNSALKSRLSISKDNSKSQVFLKMNSLQTDDTAMYYCARNGNFYAMDQWGQGTSVTVSS
VL: QIVLTQSPAIMSASLGERVTMTCTASSSVSSSFLHWYQQKPGSSPQLWIYSTSNLASGVPARFSGSGSGTSYSLTISSMEAEDAATYYCHQYHHSPYIYTFGGGTKLEIK
B17: KB001 parental mouse Fab VH variant Y106H (Fab, V domains shown)
VH: EVQLKQSGPGLVAPSQSLSITCTVSGFSLSIYSVHWVRQPPGKGLEWLGMIWGGGSSDYNSALKSRLSISKDNSKSQVFLKMNSLQTDDTAMYYCARNGNFYAMDHWGQGTSVTVSS
VL: QIVLTQSPAIMSASLGERVTMTCTASSSVSSSFLHWYQQKPGSSPQLWIYSTSNLASGVPARFSGSGSGTSYSLTISSMEAEDAATYYCHQYHHSPYIYTFGGGTKLEIK
B18: KB001 parental mouse Fab VH variant Y106D (Fab, V domains shown)
VH: EVQLKQSGPGLVAPSQSLSITCTVSGFSLSIYSVHWVRQPPGKGLEWLGMIWGGGSSDYNSALKSRLSISKDNSKSQVFLKMNSLQTDDTAMYYCARNGNFYAMDDWGQGTSVTVSS
VL: QIVLTQSPAIMSASLGERVTMTCTASSSVSSSFLHWYQQKPGSSPQLWIYSTSNLASGVPARFSGSGSGTSYSLTISSMEAEDAATYYCHQYHHSPYIYTFGGGTKLEIK

Key:
[1] = target: HRgpA-6H (Porphyromonas gingivalis) (UniProt P28784); test: ELISA, HRgpA-6H coated 1 ug/ml; mouse Fab FASEBA supernatant; Goat Anti-MOUSE IgG (Fab specific) [HRP]
[2] = target: HRgpA-6H (Porphyromonas gingivalis) (UniProt P28784); test: ELISA, HRgpA-6H coated 2 ug/ml; mouse Fab FASEBA supernatant; Goat Anti-MOUSE IgG (Fab specific) [HRP]
[3] = target: HRgpA-6H (Porphyromonas gingivalis) (UniProt P28784); test: ELISA, HRgpA-6H coated 0.5 ug/ml; mouse Fab FASEBA supernatant; Goat Anti-MOUSE IgG (Fab specific) [HRP]
[4] = target: HRgpA-6H (Porphyromonas gingivalis) (UniProt P28784); test: ELISA, HRgpA-6H coated 0.25 ug/ml; mouse Fab FASEBA supernatant; Goat Anti-MOUSE IgG (Fab specific) [HRP]
[5] = target: HRgpA-6H (Porphyromonas gingivalis) (UniProt P28784); test: ELISA, HRgpA-6H coated 0.125 ug/ml; mouse Fab FASEBA supernatant; Goat Anti-MOUSE IgG (Fab specific) [HRP]
[6] = target: HRgpA-6H (Porphyromonas gingivalis) (UniProt P28784); test: ELISA, HRgpA-6H coated 0.0625 ug/ml; mouse Fab FASEBA supernatant; Goat Anti-MOUSE IgG (Fab specific) [HRP]
[7] = target: HRgpA-6H (Porphyromonas gingivalis) (UniProt P28784); test: ELISA, Fab FASEBA supernatant on coated HRgpA-6H (0.0625 ug/ml)

Sequence of UniProt P28784 (P28784 228-991 limits assumed): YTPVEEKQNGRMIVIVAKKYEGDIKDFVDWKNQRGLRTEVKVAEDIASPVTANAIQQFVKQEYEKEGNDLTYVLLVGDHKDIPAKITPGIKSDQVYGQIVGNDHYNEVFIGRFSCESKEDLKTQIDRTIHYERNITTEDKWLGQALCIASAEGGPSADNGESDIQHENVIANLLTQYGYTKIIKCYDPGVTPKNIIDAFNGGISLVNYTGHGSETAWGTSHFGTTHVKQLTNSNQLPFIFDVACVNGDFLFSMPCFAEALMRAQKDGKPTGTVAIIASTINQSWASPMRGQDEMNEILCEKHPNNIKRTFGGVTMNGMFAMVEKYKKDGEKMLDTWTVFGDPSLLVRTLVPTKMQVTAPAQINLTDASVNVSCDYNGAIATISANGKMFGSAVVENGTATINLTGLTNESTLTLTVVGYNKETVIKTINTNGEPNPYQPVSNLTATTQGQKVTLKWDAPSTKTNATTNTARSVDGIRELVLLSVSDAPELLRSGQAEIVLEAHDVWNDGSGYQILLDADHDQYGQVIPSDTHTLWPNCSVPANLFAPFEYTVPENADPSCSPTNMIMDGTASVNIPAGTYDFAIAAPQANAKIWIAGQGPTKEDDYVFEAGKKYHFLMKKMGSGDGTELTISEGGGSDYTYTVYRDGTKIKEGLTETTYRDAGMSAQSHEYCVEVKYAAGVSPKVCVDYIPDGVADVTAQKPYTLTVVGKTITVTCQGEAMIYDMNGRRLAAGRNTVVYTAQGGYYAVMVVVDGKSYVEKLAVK

Binder	OD450nm [7]	Ratio OD(Variant)/OD(WT) [7]	other results
B1			OD450 [1]: 1.94 and 2.02; OD450 [2]: 2.04 and 1.98; OD450 [3]: 1.76 and 1.82; OD450 [4]: 1.58 and 1.51; OD450 [5]: 1.17 and 1.13; OD450 [6]: 0.755 and 0.687
B2	0.77	0.893	
B3	0.733 and 0.748	0.953 and 0.973	
B4	0.695 and 0.693	0.806 and 0.804	
B5	0.815 and 0.804 and 0.755	0.945 and 0.933 and 0.876	
B6	0.811	0.941	
B7	0.849 and 0.807	0.985 and 0.936	
B8	0.654	0.85	
B9	0.723	0.839	
B10	0.767	0.997	
B11	0.783	0.908	
B12	0.831	0.956	
B13	0.73 and 0.728 and 0.764	0.949 and 0.947 and 0.993	
B14	0.786	0.904	
B15	0.681	0.804	
B16	0.768	0.999	
B17	0.722	0.939	
B18	0.675	0.878	
